# Source: patent US20210277119A1 (MARENGO THERAPEUTICS, published 2021)
# Positions count from the first letter of the chain named.
# B1: A-H.52 (scFv)
# scFv: QVQLVQSGAEVKKPGSSVKVSCKASGYSFTLGYIHWVRQAPGQGLEWMGWFFPGSGNIKYNEKFKGRVTITADTSTSTAYMELSSLRSEDTAVYYCAGSYYSYDVLDYWGQGTTVTVSSGGGGSGGGGSGGGGSGGGGSDIQMTQSPSFLSASVGDRVTITCKASQNVGINVVWHQQKPGKAPKALIYSSSHRYSGVPSRFSGSGSGTEFTLTISSLQPEDFATYFCQQFKSYPLTFGQGTKLEIK
# notes: Said to be a phage clone and a monovalent scFv; also called phage clone; monovalent scFv
# B2: A-H.53 (scFv)
# scFv: B1 scFv with T30R, G32T
# notes: Called a phage clone; also called phage clone
# B3: A-H.54 (scFv)
# scFv: B1 scFv with T30H, L31N, G32W
# notes: as for B2
# What was measured:
# [1] = biological target: T1, recombinant protein TCRVB 6-5 (human, UniProt A0A0K0K1A5 22-114, limits assumed, captured on a Biotin CAP sensor chip (biotinylated; site not stated)); assay: SPR, TCRVB 6-5 on Biotin CAP chip, compared with BJM0277
# T1 construct: also called TCRVβ 6-5; TCRβ V6-5*01
# T1 sequence (TCR beta): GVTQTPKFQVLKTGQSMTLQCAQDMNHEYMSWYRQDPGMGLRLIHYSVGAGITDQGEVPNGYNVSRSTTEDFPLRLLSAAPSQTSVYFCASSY
# Experimental: (§1) TCRVB 6-5 at 5 ug/mL was immobilized on a Biotin CAP Series S Sensor Chip to 60 RU. A-H.52 was diluted to 50 nM and then serially diluted two fold. Association was 120 seconds, dissociation was 300 seconds. This assay was run in 1×HBS-EP+ Buffer pH 7.4 and 25 C. The data was fit using a 1:1 binding model. A-H.52 is a phage clones and is a monovalent scFv. A-H.52 has two mutations on CDRH1.
# (§2) TCRVB 6-5 at 5 ug/mL was immobilized on a Biotin CAP Series S Sensor Chip to 60 RU. A-H.53 was diluted to 50 nM and then serially diluted two fold. Association was 120 seconds, dissociation was 300 seconds. This assay was run in 1×HBS-EP+ Buffer pH 7.4 and 25 C. The data was fit using a 1:1 binding model. A-H.53 (phage clone) affinity is in the pM range (Table 16).
# as §1, with “A-H.54” for “A-H.52”, “model.” for “model. A-H.52 is a phage clones and is a monovalent scFv. A-H.52 has two mutations on CDRH1.”
# [2] = biological target: T1, recombinant protein TCRVB 6-5; assay: SPR, TCRVB 6-5 captured on Biotin CAP chip, analyte from 50 nM in two-fold dilutions, 1:1 model, 25 C
# Experimental: as §1, §2
# as §1, with “A-H.54” for “A-H.52”, “model.” for “model. A-H.52 is a phage clones and is a monovalent scFv. A-H.52 has two mutations on CDRH1.”
Binder,fold greater affinity than BJM0277 [1] [fold],Kd [2] [nM]
B1,20,1.76
B2,200,0.165
B3,17,2.22
